Molecular target: T1, human recombinant aromatase (human) (UniProt P11511)
T1 sequence: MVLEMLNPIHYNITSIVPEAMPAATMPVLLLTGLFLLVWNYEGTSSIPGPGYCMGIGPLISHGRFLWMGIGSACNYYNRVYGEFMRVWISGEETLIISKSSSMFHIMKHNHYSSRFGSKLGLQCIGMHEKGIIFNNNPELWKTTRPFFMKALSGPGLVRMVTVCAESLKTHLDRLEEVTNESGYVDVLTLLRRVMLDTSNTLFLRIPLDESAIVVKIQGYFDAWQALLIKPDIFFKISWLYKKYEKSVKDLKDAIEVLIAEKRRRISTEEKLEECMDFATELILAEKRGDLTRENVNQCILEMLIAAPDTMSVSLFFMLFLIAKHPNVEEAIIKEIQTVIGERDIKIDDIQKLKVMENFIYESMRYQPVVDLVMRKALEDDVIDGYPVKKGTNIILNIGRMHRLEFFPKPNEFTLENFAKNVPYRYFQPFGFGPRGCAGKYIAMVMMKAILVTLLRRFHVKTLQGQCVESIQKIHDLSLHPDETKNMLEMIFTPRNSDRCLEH

Km of aromatase for reductase from Lineweaver–Burk plots; tritiated water release from [1β-3H(N)]-androstenedione, 50 nM pure aromatase, reductase 1 nM to 20 nM, androstenedione 10 nM to 500 nM, 37°C: 1 nM
B1: NADPH-cytochrome P450 reductase (enzyme)
chain: MGDSHEDTSATMPEAVAEEVSLFSTTDMVLFSLIVGVLTYWFIFRKKKEEIPEFSKIQTTAPPVKESSFVEKMKKTGRNIIVFYGSQTGTAEEFANRLSKDAHRYGMRGMSADPEEYDLADLSSLPEIDKSLVVFCMATYGEGDPTDNAQDFYDWLQETDVDLTGVKFAVFGLGNKTYEHFNAMGKYVDQRLEQLGAQRIFELGLGDDDGNLEEDFITWREQFWPAVCEFFGVEATGEESSIRQYELVVHEDMDVAKVYTGEMGRLKSYENQKPPFDAKNPFLAAVTANRKLNQGTERHLMHLELDISDSKIRYESGDHVAVYPANDSALVNQIGEILGADLDVIMSLNNLDEESNKKHPFPCPTTYRTALTYYLDITNPPRTNVLYELAQYASEPSEQEHLHKMASSSGEGKELYLSWVVEARRHILAILQDYPSLRPPIDHLCELLPRLQARYYSIASSSKVHPNSVHICAVAVEYEAKSGRVNKGVATSWLRAKEPAGENGGRALVPMFVRKSQFRLPFKSTTPVIMVGPGTGIAPFMGFIQERAWLREQGKEVGETLLYYGCRRSDEDYLYREELARFHKDGALTQLNVAFSREQAHKVYVQHLLKRDREHLWKLIHEGGAHIYVCGDARNMAKDVQNTFYDIVAEFGPMEHTQAVDYVKKLMTKGRYSLDVWS
